Source: the supplement of paper PMC5998384

Key:
HeLa Kyoto [1] = assay: melting temperature (median over replicates), in situ; higher = more thermally stable
HeLa Kyoto [2] = assay: thermal stability score vs G1/S (z-score of summed log2 fold changes over temperatures); higher = more thermally stable than in G1/S
[3] = cell cycle stage: early G1 (4.5 h after nocodazole release)
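Wherever melting temperature (median over replicates), in situ is given: HeLa Kyoto cells synchronized by double thymidine or nocodazole block, proteins quantified by TMT10plex mass spectrometry, three independent biological replicates.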
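Wherever thermal stability score vs G1/S (z-score of summed log2 fold changes over temperatures) is given: synchronized HeLa Kyoto cells, proteins quantified by TMT10plex mass spectrometry, three biological replicates, mitosis taken 0.5 h after nocodazole release, G1/S directly after double thymidine block.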

Sequence of ARF1 (chain, as listed by the source): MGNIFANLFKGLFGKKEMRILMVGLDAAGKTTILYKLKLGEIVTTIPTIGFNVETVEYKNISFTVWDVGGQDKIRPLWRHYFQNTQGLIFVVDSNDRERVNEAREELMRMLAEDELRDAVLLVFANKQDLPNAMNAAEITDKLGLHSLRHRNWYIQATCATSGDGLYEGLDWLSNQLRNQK
Sequence of PDK1 (chain, as listed by the source): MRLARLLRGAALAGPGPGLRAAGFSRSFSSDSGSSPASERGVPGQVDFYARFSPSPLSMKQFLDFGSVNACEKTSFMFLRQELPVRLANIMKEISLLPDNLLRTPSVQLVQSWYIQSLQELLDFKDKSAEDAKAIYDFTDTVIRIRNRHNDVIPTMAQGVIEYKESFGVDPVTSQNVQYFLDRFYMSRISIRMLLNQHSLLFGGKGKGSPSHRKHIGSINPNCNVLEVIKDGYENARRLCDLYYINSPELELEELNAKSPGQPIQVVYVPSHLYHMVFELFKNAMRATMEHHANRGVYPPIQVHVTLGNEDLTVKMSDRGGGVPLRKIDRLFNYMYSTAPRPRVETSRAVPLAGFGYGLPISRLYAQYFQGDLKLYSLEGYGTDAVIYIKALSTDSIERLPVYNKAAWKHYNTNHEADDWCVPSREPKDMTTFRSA

ARF1
melting temperature (HeLa Kyoto [1]; cell cycle stage: G1/S): 59.6 °C | melting temperature (HeLa Kyoto [1]; cell cycle stage: mitosis): 57.8 °C

KIF1B
melting temperature (HeLa Kyoto [1]; cell cycle stage: G1/S): 50.5 °C | melting temperature (HeLa Kyoto [1]; cell cycle stage: mitosis): 52.2 °C

MAAGQNGHEEWVGSAYLFVESSLDKVVLSDAYAHPQQKVAVYRALQAALAESGGSPDVLQMLKIHRSDPQLIVQLRFCGRQPCGRFLRAYREGALRAALQRSLAAALAQHSVPLQLELRAGAERLDALLADEERCLSCILAQQPDRLRDEELAELEDALRNLKCGSGARGGDGEVASAPLQPPVPSLSEVKPPPPPPPAQTFLFQGQPVVNRPLSLKDQQTFARSVGLKWRKVGRSLQRGCRALRDPALDSLAYEYEREGLYEQAFQLLRRFVQAEGRRATLQRLVEALEENELTSLAEDLLGLTDPNGGLA [TRADD]
melting temperature (HeLa Kyoto [1]; cell cycle stage: G1/S): 49.9 °C

MAGPAAAFRRLGALSGAAALGFASYGAHGAQFPDAYGKELFDKANKHHFLHSLALLGVPHCRKPLWAGLLLASGTTLFCTSFYYQALSGDPSIQTLAPAGGTLLLLGWLALAL [TMEM256]
melting temperature (HeLa Kyoto [1]; cell cycle stage: mitosis): 56.6 °C

MAGSEPRSGTNSPPPPFSDWGRLEAAILSGWKTFWQSVSKERVARTTSREEVDEAASTLTRLPIDVQLYILSFLSPHDLCQLGSTNHYWNETVRDPILWRYFLLRDLPSWSSVDWKSLPDLEILKKPISEVTDGAFFDYMAVYRMCCPYTRRASKSSRPMYGAVTSFLHSLIIQNEPRFAMFGPGLEELNTSLVLSLMSSEELCPTAGLPQRQIDGIGSGVNFQLNNQHKFNILILYSTTRKERDRAREEHTSAVNKMFSRHNEGDDQQGSRYSVIPQIQKVCEVVDGFIYVANAEAHKRHEWQDEFSHIMAMTDPAFGSSGRPLLVLSCISQGDVKRMPCFYLAHELHLNLLNHPWLVQDTEAETLTGFLNGIEWILEEVESKRAR [FBXO4]
melting temperature (HeLa Kyoto [1]; cell cycle stage: mitosis): 52 °C

MAGYEYVSPEQLAGFDKYKYSAVDTNPLSLYVMHPFWNTIVKVFPTWLAPNLITFSGFLLVVFNFLLMAYFDPDFYASAPGHKHVPDWVWIVVGILNFVAYTLDGVDGKQARRTNSSTPLGELFDHGLDSWSCVYFVVTVYSIFGRGSTGVSVFVLYLLLWVVLFSFILSHWEKYNTGILFLPWGYDISQVTISFVYIVTAVVGVEAWYEPFLFNFLYRDLFTAMIIGCALCVTLPMSLLNFFRSYKNNTLKLNSVYEAMVPLFSPCLLFILSTAWILWSPSDILELHPRVFYFMVGTAFANSTCQLIVCQMSSTRCPTLNWLLVPLFLVVLVVNLGVASYVESILLYTLTTAFTLAHIHYGVRVVKQLSSHFQIYPFSLRKPNSDULGMEEKNIGL [EPT1]
melting temperature (HeLa Kyoto [1]; cell cycle stage: G1/S): 52.8 °C

MAIFRQLSLGAKATLAAVTVFVSMIASRSYLAESLELRAWRWLLRLQLALFVNSLLLIGSLYIWRSTVSNLCHSPAAESTCFQLWKVVVLAFLALAHSSFFTMFFLVAEEPYLFSLAAYSCLGAYIIMLFFLFILSGMEQAYQLLAWRSGRVVGSLEKTRKLVLRPALAVGVTAVLSVAGILNAAQPPAVKTVEVPIHQLPASMNNLKIVLLSDIHLGPTVGRTKMEMFVRMVNVLEPDITVIVGDLSDSEASVLRTAVAPLGQLHSHLGAYFVTGNHEYYTSDVSNWFALLESLHVQPLHNENVKISATRAQRGGGGSGSGSEDEDWICLAGVDDIEADILHYSGHGMDLDKALEGCSPDHTIILLAHQPLAAKRALQARPDINLILSGHTHAGQIFPLNVAAYLLNPFFAGLYQVAQATFVYVSPGTAYYGIPMRLGSRAEITELILQRSP [TMPPE]
melting temperature (HeLa Kyoto [1]; cell cycle stage: G1/S): 53.6 °C | melting temperature (HeLa Kyoto [1]; cell cycle stage: mitosis): 53.6 °C

MALNGAEVDDFSWEPPTEAETKVLQARRERQDRISRLMGDYLLRGYRMLGETCADCGTILLQDKQRKIYCVACQELDSDVDKDNPALNAQAALSQAREHQLASASELPLGSRPAPQPPVPRPEHCEGAAAGLKAAQGPPAPAVPPNTDVMACTQTALLQKLTWASAELGSSTSLETSIQLCGLIRACAEALRSLQQLQH [SSSCA1]
melting temperature (HeLa Kyoto [1]; cell cycle stage: G1/S): 53.3 °C | melting temperature (HeLa Kyoto [1]; cell cycle stage: mitosis): 53.5 °C

MAPGRAVAGLLLLAAAGLGGVAEGPGLAFSEDVLSVFGANLSLSAAQLQHLLEQMGAASRVGVPEPGQLHFNQCLTAEEIFSLHGFSNATQITSSKFSVICPAVLQQLNFHPCEDRPKHKTRPSHSEVWGYGFLSVTIINLASLLGLILTPLIKKSYFPKILTFFVGLAIGTLFSNAIFQLIPEAFGFDPKVDSYVEKAVAVFGGFYLLFFFERMLKMLLKTYGQNGHTHFGNDNFGPQEKTHQPKALPAINGVTCYANPAVTEANGHIHFDNVSVVSLQDGKKEPSSCTCLKGPKLSEIGTIAWMITLCDALHNFIDGLAIGASCTLSLLQGLSTSIAILCEEFPHELGDFVILLNAGMSTRQALLFNFLSACSCYVGLAFGILVGNNFAPNIIFALAGGMFLYISLADMFPEMNDMLREKVTGRKTDFTFFMIQNAGMLTGFTAILLITLYAGEIELE [SLC39A8]
melting temperature (HeLa Kyoto [1]; cell cycle stage: G1/S): 58.6 °C

MASKTKASEALKVVARCRPLSRKEEAAGHEQILTMDVKLGQVTLRNPRAAPGELPKTFTFDAVYDASSKQADLYDETVRPLIDSVLQGFNGTVFAYGQTGTGKTYTMQGTWVEPELRGVIPNAFEHIFTHISRSQNQQYLVRASYLEIYQEEIRDLLSKEPGKRLELKENPETGVYIKDLSSFVTKNVKEIEHVMNLGNQTRAVGSTHMNEVSSRSHAIFIITVECSERGSDGQDHIRVGKLNLVDLAGSERQNKAGPNTAGGAATPSSGGGGGGGGSGGGAGGERPKEASKINLSLSALGNVIAALAGNRSTHIPYRDSKLTRLLQDSLGGNAKTIMVATLGPASHSYDESLSTLRFANRAKNIKNKPRVNEDPKDTLLREFQEEIARLKAQLEKRGMLGKRPRRKSSRRKKAVSAPPGYPEGPVIEAWVAEEEDDNNNNHRPPQPILESALEKNMENYLQEQKERLEEEKAAIQDDRSLVSEEKQKLLEEKEKMLEDLRREQQATELLAAKYKAMESKLLIGGRNIMDHTNEQQKMLELKRQEIAEQKRREREMQQEMMLRDEETMELRGTYTSLQQEVEVKTKKLKKLYAKLQAVKAEIQDQHDEYIRVRQDLEEAQNEQTRELKLKYLIIENFIPPEEKNKIMNRLFLDCEEEQWKFQPLVPAGVSSSQMKKRPTSAVGYKRPISQYARVAMAMGSHPRYRAENIMFLELDVSPPAVFEMEFSHDQEQDPRALHMERLMRLDSFLERPSTSKVRKSRSWCQSPQRPPPSTTHASLASASLRPATVADHE [KIF3C]
melting temperature (HeLa Kyoto [1]; cell cycle stage: mitosis): 50.4 °C

MCVRSCFQSPRLQWVWRTAFLKHTQRRHQGSHRWTHLGGSTYRAVIFDMGGVLIPSPGRVAAEWEVQNRIPSGTILKALMEGGENGPWMRFMRAEITAEGFLREFGRLCSEMLKTSVPVDSFFSLLTSERVAKQFPVMTEAITQIRAKGLQTAVLSNNFYLPNQKSFLPLDRKQFDVIVESCMEGICKPDPRIYKLCLEQLGLQPSESIFLDDLGTNLKEAARLGIHTIKVNDPETAVKELEALLGFTLRVGVPNTRPVKKTMEIPKDSLQKYLKDLLGIQTTGPLELLQFDHGQSNPTYYIRLANRDLVLRKKPPGTLLPSAHAIEREFRIMKALANAGVPVPNVLDLCEDSSVIGTPFYVMEYCPGLIYKDPSLPGLEPSHRRAIYTAMNTVLCKIHSVDLQAVGLEDYGKQGDYIPRQVRTWVKQYRASETSTIPAMERLIEWLPLHLPRQQRTTVVHGDFRLDNLVFHPEEPEVLAVLDWELSTLGDPLADVAYSCLAHYLPSSFPVLRGINDCDLTQLGIPAAEEYFRMYCLQMGLPPTENWNFYMAFSFFRVAAILQGVYKRSLTGQASSTYAEQTGKLTEFVSNLAWDFAVKEGFRVFKEMPFTNPLTRSYHTWARPQSQWCPTGSRSYSSVPEASPAHTSRGGLVISPESLSPPVRELYHRLKHFMEQRVYPAEPELQSHQASAARWSPSPLIEDLKEKAKAEGLWNLFLPLEADPEKKYGAGLTNVEYAHLCELMGTSLYAPEVCNCSAPDTGNMELLVRYGTEAQKARWLIPLLEGKARSCFAMTEPQVASSDATNIEASIREEDSFYVINGHKWWITGILDPRCQLCVFMGKTDPHAPRHRQQSVLLVPMDTPGIKIIRPLTVYGLEDAPGGHGEVRFEHVRVPKENMVLGPGRGFEIAQGRLGPGRIHHCMRLIGFSERALALMKARVKSRLAFGKPLVEQGTVLADIAQSRVEIEQARLLVLRAAHLMDLAGNKAAALDIAMIKMVAPSMASRVIDRAIQAFGAAGLSSDYPLAQFFTWARALRFADGPDEVHRATVAKLELKHRI [ACAD10]
melting temperature (HeLa Kyoto [1]; cell cycle stage: mitosis): 50.7 °C

MDCEVNNGSSLRDECITNLLVFGFLQSCSDNSFRRELDALGHELPVLAPQWEGYDELQTDGNRSSHSRLGRIEADSESQEDIIRNIARHLAQVGDSMDRSIPPGLVNGLALQLRNTSRSEEDRNRDLATALEQLLQAYPRDMEKEKTMLVLALLLAKKVASHTPSLLRDVFHTTVNFINQNLRTYVRSLARNGMD [BID]
melting temperature (HeLa Kyoto [1]; cell cycle stage: G1/S): 52.8 °C | melting temperature (HeLa Kyoto [1]; cell cycle stage: mitosis): 55.5 °C

MENGAVYSPTTEEDPGPARGPRSGLAAYFFMGRLPLLRRVLKGLQLLLSLLAFICEEVVSQCTLCGGLYFFEFVSCSAFLLSLLILIVYCTPFYERVDTTKVKSSDFYITLGTGCVFLLASIIFVSTHDRTSAEIAAIVFGFIASFMFLLDFITMLYEKRQESQLRKPENTTRAEALTEPLNA [CMTM6]
melting temperature (HeLa Kyoto [1]; cell cycle stage: G1/S): 55.6 °C

MESMAVATDGGERPGVPAGSGLSASQRRAELRRRKLLMNSEQRINRIMGFHRPGSGAEEESQTKSKQQDSDKLNSLSVPSVSKRVVLGDSVSTGTTDQQGGVAEVKGTQLGDKLDSFIKPPECSSDVNLELRQRNRGDLTADSVQRGSRHGLEQYLSRFEEAMKLRKQLISEKPSQEDGNTTEEFDSFRIFRLVGCALLALGVRAFVCKYLSIFAPFLTLQLAYMGLYKYFPKSEKKIKTTVLTAALLLSGIPAEVINRSMDTYSKMGEVFTDLCVYFFTFIFCHELLDYWGSEVP [CAMLG]
melting temperature (HeLa Kyoto [1]; cell cycle stage: G1/S): 57.8 °C

MGFIFSKSMNESMKNQKEFMLMNARLQLERQLIMQSEMRERQMAMQIAWSREFLKYFGTFFGLAAISLTAGAIKKKKPAFLVPIVPLSFILTYQYDLGYGTLLERMKGEAEDILETEKSKLQLPRGMITFESIEKARKEQSRFFIDK [PLGRKT]
melting temperature (HeLa Kyoto [1]; cell cycle stage: G1/S): 56.5 °C | melting temperature (HeLa Kyoto [1]; cell cycle stage: mitosis): 55.5 °C

MGGCVGAQHDSSGSLNENSEGTGVALGRNQPLKKEKPKWKSDYPMTDGQLRSKRDEFWDTAPAFEGRKEIWDALKAAAHAFESNDHELAQAIIDGANITLPHGALTECYDELGNRYQLPVYCLAPPINMIEEKSDIETLDIPEPPPNSGYECQLRLRLSTGKDLKLVVRSTDTVFHMKRRLHAAEGVEPGSQRWFFSGRPLTDKMKFEELKIPKDYVVQVIVSQPVQNPTPVEN [UBTD2]
melting temperature (HeLa Kyoto [1]; cell cycle stage: mitosis): 53.7 °C

MSSSLRPGPSRWRRAASIVLAAGWSRPETATPPSRPPPAEGFRLLLLQRSPHQGFMPGAHVFSGGVLDAADRSADWLGLFAPHHGPPRFGLGPAPFSRTAFPSLPDTDDHKTDNTGTLPEDVAFRICAVREAFEEAGVLLLRPRTSPPGPAPGPGLALEPPPGLASWRDRVRQDPRHFLRLCAHLDCTPDIWALHNWSAWLTPFLRGTTRRFDTAFFLCCLREPPPVYPDLAEVVGYQWSSPSEATESFLSKEIWLPPPQFYEVRRLANFASLSDLHKFCLGRALEGLERWLPIILLTADGMVHLLPGDELYLEDSDFLENLMSTEKKTEEIMKEGKQFHRIVTYHRHLYDIHVTVQPKYKHVYPKNSVVRKSHL [NUDT19]
thermal stability score (HeLa Kyoto [2]; [3]): -1.25 | thermal stability score (HeLa Kyoto [2]; cell cycle stage: mitosis): -1.33

MWSGPPQPDQGLPPPLAAVPVPWKSTDPCQGHRESPGALVETSAGEEAQGQEGPAAAQLDVLRLRSSSMEIREKGSEFLKEELHRAQKELKLKDEECERLSKVREQLEQELEELTASLFEEAHKMVREANMKQAASEKQLKEARGKIDMLQAEVTALKTLVITSTPASPNRELHPQLLSPTKAGPRKGHSRHKSTSSTLCPAVCPAAGHTLTPDREGKEVDTILFAEFQAWRESPTLDKTCPFLERVYREDVGPCLDFTMQELSVLVRAAVEDNTLTIEPVASQTLPTVKVAEVDCSSTNTCALSGLTRTCRHRIRLGDSKSHYYISPSSRARITAVCNFFTYIRYIQQGLVRQDAEPMFWEIMRLRKEMSLAKLGFFPQEA [RAB3IL1]
thermal stability score (HeLa Kyoto [2]; [3]): -0.0366 | thermal stability score (HeLa Kyoto [2]; cell cycle stage: mitosis): 0.539

PDK1
thermal stability score (HeLa Kyoto [2]; [3]): -0.202 | thermal stability score (HeLa Kyoto [2]; cell cycle stage: mitosis): 0.796
